Article PMC8141814 (Frontiers in Molecular Biosciences, 2021)

Target: GS-nsp5 C145A (GS added nsp5 construct with the active site mutation C145A) (SARS-CoV-2)
Test: NMR, 2D [15N,1H]-BEST-TROSY spectra compared

## GS-nsp5 C145A (GS added nsp5 construct with the active site mutation C145A) (enzyme)
  stoichiometry N: 2
